Measurements reported in patent publication US11162087B2, “Beta-glucosidase, enzyme composition including same, and method for manufacturing sugar solution using same” (RIKEN, priority 2017, dated 2021).

Columns and labels:
[1] = Inhibitory action of glucose on the β-glucosidase activity; format: biochemical; conditions: 1 mM pNP-Glc, 30° C., 100 minutes
From the text: The β-glucosidase derived from a protist of the genus Pseudotrichonympha of the present invention is preferably less likely to suffer from inhibition by glucose on the 3-glucosidase activity. Specifically, when the β-glucosidase activity in the absence of glucose is taken unity, the β-glucosidase activity under a condition of a glucose concentration of 8 g/L (or in the presence of 8 g/L glucose) is preferably 0.5 or more, more preferably 0.6 or more, more preferably 0.7 or more, more preferably 0.8 or more, more preferably 0.9 or more, more preferably 1.0 or more, more preferably 1.1 or more, more preferably 1.2 or more, more preferably 1.3 or more, and in particular preferably 1.4 or more. Further, in addition to the β-glucosidase activity under the condition of the glucose concentration of 8 g/L, when the β-glucosidase activity in the absence of glucose is taken as unity, the β-glucosidase activity under a condition of a glucose concentration of 20 g/L (or in the presence of 20 g/L glucose) is preferably 0.5 or more, more preferably 0.6 or more, and in particular preferably 0.7 or more. The method used herein for measuring the β-glucosidase activity is the same as the above-described method except that 8 g/L or 20 g/L of glucose is added at the time of measuring; and results obtained thereby are used.
An enzyme solution was added to a mixture solution containing 1 mM p-nitrophenyl-β-glucopyranoside (manufactured by Sigma-Aldrich Japan), 50 mM acetic acid buffer and 0, 4, 8 or 20 g/L glucose such that the total amount of the reaction solution became 100 μL, causing a reaction at 30° C. for 100 minutes. Thereafter, 10 μL of 2M sodium carbonate was added and well mixed to stop the reaction, and an increase of absorbance at 405 nm was measured. The activity to release 1 μmol of p-nitrophenol per minute was defined as 1 U. For a blank, 10 μL of 2M sodium carbonate was added to an amount, equivalent to that of the above mixture solution for the reaction solution before addition of the enzyme solution, of a mixture solution containing 1 mM p-nitrophenyl-β-glucopyranoside, 50 mM sodium acetate buffer and 0, 4, 8 or 20 g/L glucose, and mixed well; and then, the enzyme solution was added such that the total solution amount of the blank became 110 μL, causing a reaction at 30° C. for 30 minutes. Thereafter, an increase of absorbance at 405 nm was measured.
In accordance with Reference Example 8, the inhibitory action of glucose on the β-glucosidase activity was measured in enzyme compositions: containing the β-glucosidase and the genus Trichoderma filamentous fungus-derived cellulase prepared in Example 10; and the cell-free extract of β-glucosidase mutant gene transformed E. coli prepared in Example 5. For a comparative control, only the genus Trichoderma filamentous fungus-derived cellulase was used, and the inhibitory action of glucose on the β-glucosidase activity was measured in the same manner. […] That is, both of the enzyme composition containing the β-glucosidase of the present invention and the genus Trichoderma filamentous fungus-derived cellulase, and the cell-free extract of β-glucosidase mutant gene transformed E. coli were less likely to suffer from inhibition on the β-glucosidase activity by glucose, compared to only the genus Trichoderma filamentous fungus-derived cellulase, and the enzyme composition of Comparative Example 1 containing the genus Aspergillus filamentous fungus-derived β-glucosidase and the genus Trichoderma filamentous fungus-derived cellulase.

[2] = β-glucosidase activity measurement with pNP-Glc; format: biochemical; conditions: 1 mM pNP-Glc, 50 mM acetic acid buffer, 30° C., 10 minutes; 1 U = 1 μmol p-nitrophenol per minute
Protocol: In the present invention, “β-glucosidase” means an enzyme that catalyzes a reaction for hydrolysis degradation of a sugar β-glucoside bond. In the present invention, a method for measuring a β-glucosidase activity utilizes a reaction using p-nitrophenyl-β-D-glucopyranoside (pNP-Glc) as a substrate. Specifically, an enzyme liquid is added to a substrate solution prepared by dissolving pNP-Glc in 50 mM acetic acid-sodium acetate buffer solution (pH 5.0) and reacted at 30° C. for 10 minutes; and the reaction is stopped by well mixing with 2M sodium carbonate in an amount equivalent to one-tenth of a reaction system volume to measure an increase of the absorbance at 405 nm. When p-nitrophenol is released and the absorbance at 405 nm is increased after the above reaction, it is determined that the β-glucosidase activity is present.
10 μL of an enzyme diluted solution was added to and reacted with 90 μL of 50 mM acetic acid buffer containing 1 mM p-nitrophenyl-β-glucopyranoside (manufactured by Sigma-Aldrich Japan) at 30° C. for 10 minutes. Thereafter, 10 μL of 2M sodium carbonate was added and well mixed to stop the reaction, and an increase of absorbance at 405 nm was measured. The activity to release 1 μmol of p-nitrophenol per minute was defined as 1 U. For a blank, 10 μL of 2M sodium carbonate was added to and well mixed with 90 μL of 50 mM sodium acetate buffer containing 1 mM p-nitrophenyl-β-glucopyranoside, and thereafter, 10 μL of an enzyme diluted solution was added to cause a reaction at 30° C. for 30 minutes. Thereafter, an increase of absorbance at 405 nm was measured. At this time, the enzyme liquid was diluted so as not to exceed an absorbance at 405 nm of 1. In addition, a calibration curve was created based on absorbances measured by preparing p-nitrophenol solutions at concentrations of 0.1 mM, 0.2 mM, 1 mM and 2 mM; using 10 μL of them instead of an enzyme diluted solution; and adding and well mixing 10 μL of 2M sodium carbonate for color development.

Row | Molecule | BGL activity (relative value) in the presence of 8 g/L glucose when BGL activity in the absence of glucose is taken as unity [1] | BGL activity (relative value) in the presence of 20 g/L glucose when BGL activity in the absence of glucose is taken as unity [1] | β-glucosidase activity per 1 mg of protein [2]
1 | Comparative Example 1: β-glucosidase derived from the genus Aspergillus filamentous fungus: Aspergillus β-glucosidase (SEQ ID NO: 10) expressed in Trichoderma reesei; measured as enzyme composition … (protein, listed as Aspergillus aculeatus, measured as enzyme composition with Trichoderma cellulase) DELAFSPPFYPSPWANGQGEWAEAYQRAVAIVSQMTLDEKVNLTTGTGWELEKCVGQTGGVPRLNIGGMCLQDSPLGIRDSDYNSAFPAGVNVAATWDKNLAYLRGQAMGQEFSDKGIDVQLGPAAGPLGRSPDGGRNWEGFSPDPALTGVLFAETIKGIQDAGVVATAKHYILNEQEHFRQVAEAAGYGFNISDTISSNVDDKTIHEMYLWPFADAVRAGVGAIMCSYNQINNSYGCQNSYTLNKLLKAELGFQGFVMSDWGAHHSGVGSALAGLDMSMPGDITFDSATSFWGTNLTIAVLNGTVPQWRVDDMAVRIMAAYYKVGRDRLYQPPNFSSWTRDEYGFKYFYPQEGPYEKVNHFVNVQRNHSEVIRKLGADSTVLLKNNNALPLTGKERKVAILGEDAGSNSYGANGCSDRGCDNGTLAMAWGSGTAEFPYLVTPEQAIQAEVLKHKGSVYAITDNWALSQVETLAKQASVSLVFVNSDAGEGYISVDGNEGDRNNLTLWKNGDNLIKAAANNCNNTIVVIHSVGPVLVDEWYDHPNVTAILWAGLPGQESGNSLADVLYGRVNPGAKSPFTWGKTREAYGDYLVRELNNGNGAPQDDFSEGVFIDYRGFDKRNETPIYEFGHGLSYTTFNYSGLHIQVLNASSNAQVATETGAAPTFGQVGNASDYVYPEGLTRISKFIYPWLNSTDLKASSGDPYYGVDTAEHVPEGATDGSPQPVLPAGGGSGGNPRLYDELIRVSVTVKNTGRVAGDAVPQLYVSLGGPNEPKVVLRKFDRLTLKPSEETVWTTTLTRRDLSNWDVAAQDWVITSYPKKVHVGSSSRQLPLHAALPKVQ | 0.46 | 0.20 | –
2 | partially purified β-glucosidase: His-tag purified elution fraction of SEQ ID NO: 1 β-glucosidase from E. coli cell-free extract, buffer exchanged (Example 7) (protein, listed as Pseudotrichonympha grassii, His-tag) QIEGLINVMTLEEKVGQMAQLAIDLFIDVPTDTVIPEAARKGIIDYKIGSILNTYGGVSHSKEVWTYINAEFYKYTEETDLKIPILYGLDSIHGANFVNNFTSFPQQIGMAATFNPSLLKEGSRISAYETRAASVGWVFSPVMDLGLDPRWPRIWEGFGEDPYLSSQFGIASVHGFQGKDPNLIDEFHVAACAKHYLAYSNPFTGKDRTPAILSDIFIREYHLPSFKAAVDAGVASVMVNSGLINGIPTHMNHYLLTTVLKEELGFQGVIVTDWQDIENIHTRDHLAPTQKDAVKLAINAGIDMSMIPYNYDFIDYLIELVHEGEVSIDRINDAVRRILKMKAKMNLWDLPVTKSEDYPEFGSEAHANASYTAASESITLLKNENSTLPLAKNTKVLVVGPNSNSHRSLNGGWSYSWQGNAGVQYAVQYNTIYQAIQKVNGEENTVFSQGVRYIETGNYYEDEEVNISESVALARDVDYIILALGENTYTEKPGDLSDLEISQNQIDLAKALASTGKPIILVLNQGRPRIISRIEQLVSAILWIYWPGNYGGDALADILFGDVNPSGKLPVTYPRYSASLITYWHKYAEEQVGQPGAYDYSSDYNPLWEFGYGLSYTTFNYSNLSVPSTSGMRDVIPVSVLVKNTGEVAGKEVVLLFTSDLYASLAPDVKRLRKFTKILLQPGEEQLVSFNLTSSDLSFIDAQSRRVTETGDFEIKIGGLKGKVTLT | – | – | 3.50 U per 1 mg of protein
3 | β-glucosidase of the present invention (SEQ ID NO: 1): Polypeptide of SEQ ID NO: 1 from Pseudotrichonympha grassii; in Tables 12/13 measured as the Example 10 composition with Trichoderma cellulase (protein, listed as Pseudotrichonympha grassii) QIEGLINVMTLEEKVGQMAQLAIDLFIDVPTDTVIPEAARKGIIDYKIGSILNTYGGVSHSKEVWTYINAEFYKYTEETDLKIPILYGLDSIHGANFVNNFTSFPQQIGMAATFNPSLLKEGSRISAYETRAASVGWVFSPVMDLGLDPRWPRIWEGFGEDPYLSSQFGIASVHGFQGKDPNLIDEFHVAACAKHYLAYSNPFTGKDRTPAILSDIFIREYHLPSFKAAVDAGVASVMVNSGLINGIPTHMNHYLLTTVLKEELGFQGVIVTDWQDIENIHTRDHLAPTQKDAVKLAINAGIDMSMIPYNYDFIDYLIELVHEGEVSIDRINDAVRRILKMKAKMNLWDLPVTKSEDYPEFGSEAHANASYTAASESITLLKNENSTLPLAKNTKVLVVGPNSNSHRSLNGGWSYSWQGNAGVQYAVQYNTIYQAIQKVNGEENTVFSQGVRYIETGNYYEDEEVNISESVALARDVDYIILALGENTYTEKPGDLSDLEISQNQIDLAKALASTGKPIILVLNQGRPRIISRIEQLVSAILWIYWPGNYGGDALADILFGDVNPSGKLPVTYPRYSASLITYWHKYAEEQVGQPGAYDYSSDYNPLWEFGYGLSYTTFNYSNLSVPSTSGMRDVIPVSVLVKNTGEVAGKEVVLLFTSDLYASLAPDVKRLRKFTKILLQPGEEQLVSFNLTSSDLSFIDAQSRRVTETGDFEIKIGGLKGKVTLT | 1.49 | 0.94 | –
